PMC4255277
Where two headings read alike, the source gives them in different places.

Legend:
[1] = biological target: melanocortin-4 receptor (zebrafish) (zebrafish) (UniProt B0V1P1); test: competition binding assay on cells
[2] = biological target: melanocortin-4 receptor (zebrafish) (zebrafish) (UniProt B0V1P1); test: competition binding assay on cells; remark: listed apart in the source

Sequence of UniProt B0V1P1 (B0V1P1 whole entry): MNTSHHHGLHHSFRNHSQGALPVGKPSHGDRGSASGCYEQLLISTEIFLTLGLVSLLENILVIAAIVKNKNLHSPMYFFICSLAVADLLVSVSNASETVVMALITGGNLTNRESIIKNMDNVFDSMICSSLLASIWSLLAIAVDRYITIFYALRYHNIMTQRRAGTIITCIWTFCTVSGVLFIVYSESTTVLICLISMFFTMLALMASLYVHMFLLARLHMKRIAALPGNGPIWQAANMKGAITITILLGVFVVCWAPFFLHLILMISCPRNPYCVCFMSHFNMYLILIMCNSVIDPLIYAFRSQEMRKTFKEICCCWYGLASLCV

α–melanocyte-stimulating hormone (peptide)
IC50 [1]: 45 nM | IC50 [2]: 50 nM
